From paper PMC8278045

Experiments:
Experiment in all cases: affinity purification with mass spectrometry; GFP pull-down (µMACS/MultiMACS GFP Isolation Kit beads) from thylakoid membranes of GFP-labelled Syn7942 strains solubilised with 1% digitonin; label-free LC-MS/MS, abundances normalised to GFP, WT strain as control, triplicates
[1] = target: PsaE of Photosystem I labelled with enhanced GFP (PSI–GFP) (Synechococcus elongatus PCC 7942) (UniProt Q31NL7)
[2] = target: PsbB (CP47) of Photosystem II labelled with enhanced GFP (PSII–GFP) (Synechococcus elongatus PCC 7942) (UniProt P31094)
[3] = target: PetA of Cytochrome b6f labelled with enhanced GFP (Cyt b6f–GFP) (Synechococcus elongatus PCC 7942) (UniProt Q31NV8)
Sequence of UniProt Q31NV8 (Q31NV8 31-324): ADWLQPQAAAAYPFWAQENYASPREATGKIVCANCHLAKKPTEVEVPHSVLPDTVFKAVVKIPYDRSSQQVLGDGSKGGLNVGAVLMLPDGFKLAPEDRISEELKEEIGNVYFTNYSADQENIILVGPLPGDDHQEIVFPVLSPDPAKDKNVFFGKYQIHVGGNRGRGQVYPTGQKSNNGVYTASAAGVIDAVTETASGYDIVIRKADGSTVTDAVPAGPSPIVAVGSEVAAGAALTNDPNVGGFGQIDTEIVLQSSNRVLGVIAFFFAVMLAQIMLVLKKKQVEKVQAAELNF

Sequence of UniProt Q31NL7 (Q31NL7 whole entry): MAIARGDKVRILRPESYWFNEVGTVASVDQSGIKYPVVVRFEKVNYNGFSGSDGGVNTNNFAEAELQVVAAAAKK
Sequence of UniProt P31094 (P31094 whole entry): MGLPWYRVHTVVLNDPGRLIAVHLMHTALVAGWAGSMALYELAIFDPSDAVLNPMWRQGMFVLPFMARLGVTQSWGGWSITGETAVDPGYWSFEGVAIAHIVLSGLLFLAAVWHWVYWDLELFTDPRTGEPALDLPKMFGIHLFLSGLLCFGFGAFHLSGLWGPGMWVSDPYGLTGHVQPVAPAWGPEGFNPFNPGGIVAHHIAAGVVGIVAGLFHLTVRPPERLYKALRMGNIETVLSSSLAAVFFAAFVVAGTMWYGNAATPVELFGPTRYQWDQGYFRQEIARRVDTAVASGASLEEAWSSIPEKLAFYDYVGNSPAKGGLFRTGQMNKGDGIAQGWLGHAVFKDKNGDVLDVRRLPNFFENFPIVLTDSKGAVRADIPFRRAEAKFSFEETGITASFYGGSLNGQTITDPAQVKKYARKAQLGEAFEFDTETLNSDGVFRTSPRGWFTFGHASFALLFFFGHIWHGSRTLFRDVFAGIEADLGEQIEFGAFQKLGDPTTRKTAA

Cytochrome b6f (Cyt b6f) (from UniProt Q31KG3 1-37) (complex)
percent of PSI associated with Cyt b6f [1]: 0.3% | percent of PSII associated with Cyt b6f [2]: 1.98%

Photosystem I (PSI) (from UniProt P0A421 1-139; P0A402 24-164; P0A426 5-83) (complex)
percent of Cyt b6f associated with PSI [3]: 4.1% | percent of PSII associated with PSI [2]: 9.9%

Photosystem II (PSII) (from UniProt P31094 1-508; Q31M07 29-136; Q31LM9 31-167; Q31LS7 1-40) (complex)
percent of Cyt b6f associated with PSII [3]: 2% | percent of PSI associated with PSII [1]: 1.72%
